Reference: patent US20210347914A1 (BANYAN BIOMARKERS, published 2021)

The binders below were run against T1, Polyhistidine-tagged recombinant human UCH-L1 expressed from E. coli (human, UniProt P09936 1-223, limits assumed) (assay: BLI (Octet QKe); His-tagged UCH-L1 on anti-Penta-HIS sensor, antibody in solution).
T1 construct: also called UCH-L1-His; not shown: polyhistidine tag
Description: The rates of association (kₒₙ) and dissociation (koff) of the anti-UCH-L1 antibodies were determined by bio-layer interferometry using an Octet QK^e instrument according to the manufacturer's instructions (ForteBio). See Tobias et al., Biomolecular Binding Kinetic Assays in the Octet Platform, Application Note 14, ForteBio, Div. of Pall Life Sciences, 2013. Polyhistidine-tagged recombinant human UCH-L1 expressed from E. coli was used as the antigen. The antigen was bound at a concentration of […] to an anti-Penta-HIS(HIS1K) capture biosensor containing an anti-histidine antibody (ForteBio) for use with the Octet QK^e instrument.

T1 sequence (P09936 whole entry): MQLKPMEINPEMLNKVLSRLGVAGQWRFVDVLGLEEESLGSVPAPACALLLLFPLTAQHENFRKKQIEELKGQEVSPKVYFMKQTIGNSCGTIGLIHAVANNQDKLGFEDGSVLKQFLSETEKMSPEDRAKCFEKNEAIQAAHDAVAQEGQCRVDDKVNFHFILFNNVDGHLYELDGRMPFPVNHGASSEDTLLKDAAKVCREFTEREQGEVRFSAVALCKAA

| Binder | Kd [nM] | koff [s⁻¹] | kon [M⁻¹ s⁻¹] |
| --- | --- | --- | --- |
| UCH-L1-2 (antibody, V domains shown, also called mouse anti-UCH-L1 antibody UCH-L1-2) VH: EVMLVESGGGLVKPGGSLKLSCAASGFIFSSHAMSWIRQIPEKRLEWVATISSGGSNTYYPDSVKGRFTISRDNAKNILYLQMSSLRSEDTAIYYCTRHGEVRRGYYFDYWGQGTTLTVSS VL: DIQMTQTPSSLSASLGDRVTISCSASQGITNYLNWYQQKPDGTVKLLIYYTSSLHSGVPSRFSGSGSGTDYSLTISNLEPEDFATYYCQHYSNLPWTFGGGTKLEIK | 0.207 | 3.01e-05 | 146000 |
| UCH-L1-1 (antibody, V domains shown, also called mouse anti-UCH-L1 antibody UCH-L1-1) VH: QVQLQQPGSELVRPGASVKLSCKASGYTFTSYWMHWVKQRPGQGLEWIGNIYPGSGSTNYDEKFKSKATLTVDTSSSTAYMQLSSLTSEDSAVYYCTREDYWGQGTTLTVSS VL: DVLMTQTPLSLPVSLGDQASISCRSSQNIVHSNGNTYLEWYLQKPGQSPKLLIYKVSNRFSGVPDRFSGSGSGTDFTLKISRVEAEDLGVYYCFQGSHVPFTFGSGTKLEIK | < 0.001 | < 1e-07 | 58800 |
| UCH-L1-3 (antibody, V domains shown, also called mouse anti-UCH-L1 antibody UCH-L1-3) VH: QVQLQQPGSELVRPGASVKLSCRASGYTFTSYWIHWVKQRHGQGLEWIGNIYPGSGITNYDEKFKTKGTLTVDTSSSTVYMHLISLTSEDSAVYYCTREDYWGQGTTLTVSS VL: DVLMTQTPLSLPVSLGDQASISCRSSQSIVHSNGNTYLEWYLQKPGQSPKLLIYKVSNRFSGVPDRFSGSGSGTDFTLKISGVETEDLGVYYCFQGSHVPFTFGGGTKLEIK | 0.367 | 1.34e-05 | 36400 |
| UCH-L1-7 (antibody, V domains shown, also called mouse anti-UCH-L1 antibody UCH-L1-7) VH: EVQLQQSGPELVKPGASVKISCKTSGYTFTEYTMHWVKQSHGKSLDWIGGINPNNGRTSYNQKFKGKATLTVDKSSSTAYMELRSLTSEDSAVYYCARRLGRGFYFDYWGQGTTLTVSS VL: DIVLTQSPASLAVSLGQRATISCRASESVDSYGNNLMHWYQQKPGQPPKLLIYLSSNLESGIPARFSGRGSRTDFTLTINPVEADDVATYYCQQSNGDPYTFGGGTKLEIK | 0.0187 | 2.5e-06 | 133000 |
| UCH-L1-8 (antibody, V domains shown, also called mouse anti-UCH-L1 antibody UCH-L1-8) VH: EVQLQQSGPDLVKPGTSVKISCKTSGYTFTEYTMHWVKQSHGRSLEWIGGLNPNNGRTSYNQKFKGKATLTVDKSSSIAYMELRSLTSEDSAVYYCARRLGRGFYFDYWGQGTTLTVSS VL: DIVLTQSPASLAVSLGQRATISCRASESVDSYGNNLMHWYQQKPGQSPKLLIYRASNLESGIPGRFSGRGSRTDFTLTINPVEADDVATYYCQQSNGDPYTFGGGTKLEIK | 0.0474 | 6.7e-06 | 141000 |
| UCH-L1-10 (antibody, V domains shown, also called mouse anti-UCH-L1 antibody UCH-L1-10) VH: EVQLQQSGPDLVKPGTSVKISCKTSGYTFTEYTMHWVKQSHGRSLEWIGGFNPNNGRTSYNQKFKGKATLTVDKSSSTAYMELRSLTSEDSAVYYCSRRLYRGFYFDYWGQGTTLTVSS VL: DIVLTQSPASLAVSLGQRATISCRASESVDSYGNNLMHWYQQKPGQSPKLLIYRASNLESGIPGRFSGRGSRTDFSLTINPVEADDVATYYCQQSNGDPYTFGGGTKLEIK | 0.043 | 4.6e-06 | 107000 |
| UCH-L1-9 (antibody, V domains shown, also called mouse anti-UCH-L1 antibody UCH-L1-9) VH: EVQLQQSGPELVKPGASVKISCKTSGYTFTEYTMHWVKQSHGKSLDWIGGINPNNGRTSYNQKFKGKATLTVDKSSSTAYMELRSLTSEDSTVYYCARRLGRGFYFDYWGQGTTLTVSS VL: DIVLTQSPASLAVSLGQRATISCRASESVDSYGNNFMHWYQQKPGQPPKLLIYLSSNLESGIPARFSGRGSRTDFTLTINPVEADDVATYYCQQSNGDPYTFGGGTKLEMK | 0.0857 | 1.01e-05 | 118000 |
| UCH-L1-6 (antibody, V domains shown, also called mouse anti-UCH-L1 antibody UCH-L1-6) VH: EVQLQQSGPELVKPGASVKISCKTSGYTFTEYTMHWVKQSHGKSLDWIGGINPNNGRTSYNQKFKGKATLTVDKSSSTAYMDFRSLTSEDSAVYYCARRLGRGFYFDYWGQGTTLTVSS VL: DIVLTQSPASLAVSLGQRATISCRASESVESYGNNLIHWYQQKLGQPPKLLIYLSSNLEPGIPARFSGRGSRTDFTLTINPVEADDVATYYCQQSNGDPYTFGGGTKLEIR | < 0.001 | 1e-07 | 145000 |
| UCH-L1-4 (antibody, V domains shown, also called mouse anti-UCH-L1 antibody UCH-L1-4) VH: AVQLQQSGPELVKPGASVKISCKTSGDTFTEHFMNWVKQSHGESLEWIGIINPYTDGTNYDQKFKDKATLTVDKSSSTAYMELRSLTSEDSAVYYCARWGGDGEGYWGQGTTLTVSS VL: DIVMTQAAPSVSVTPGESVSISCRSSKSLLHSNGNTYLYWFLKRPGQSPQLLIYRMSNLASGVPDRVSGSGSGTAFTLRISRVEAEDVGIYYCMQHLEYPLTFGAGTKLELK | 0.0369 | 1.4e-05 | 378000 |
| UCH-L1-5 (antibody, V domains shown, also called mouse anti-UCH-L1 antibody UCH-L1-5; HRP-labeled anti-UCH-L1 detection antibody) VH: EVKLVESGGGSVQPGGSLSLSCAASGFTFTEYYMSWVRQFPGKALEWLAFIRNRAHGYTTEYSASVKGRFTISRDNSQSILYLQMNALRTEDSATYYCASSYGAPFAYWGQGTLVSVSA VL: DIVMTQAAPSVPVTPGESVSISCRSSKSLLHSDGNTYLYWFLQRPGQSPQLLIYRMSNLASGVPDRFSGSGSGTAFTLRISRVEAEDVGVYYCMQHLEYPLTFGAGTKLELK | < 0.001 | 1e-07 | 459000 |
